Experimental data published in article PMC11303396 (Nature Communications, 2024).

Biological target: the molecule itself
Test: cryo-EM structure

B1: mouse ClC-3b I607T mutant (natural protein, UniProt P51791 1-818, looked up)
chain: MESEQLFHRGYYRNSYNSITSASSDEELLDGAGAIMDFQTSEDDNLLDGDTAAGTHYTMTNGGSINSSTHLLDLLDEPIPGVGTYDDFHTIDWVREKCKDRERHRRINSKKKESAWEMTKSLYDAWSGWLVVTLTGLASGALAGLIDIAADWMTDLKEGICLSALWYNHEQCCWGSNETTFEERDKCPQWKTWAELIIGQAEGPGSYIMNYIMYIFWALSFAFLAVSLVKVFAPYACGSGIPEIKTILSGFIIRGYLGKWTLMIKTITLVLAVASGLSLGKEGPLVHVACCCGNIFSYLFPKYSTNEAKKREVLSAASAAGVSVAFGAPIGGVLFSLEEVSYYFPLKTLWRSFFAALVAAFVLRSINPFGNSRLVLFYVEYHTPWYLFELFPFILLGVFGGLWGAFFIRANIAWCRRRKSTKFGKYPVLEVIIVAAITAVIAFPNPYTRLNTSELIKELFTDCGPLESSSLCDYRNDMNASKIVDDIPDRPAGVGVYSAIWQLCLALIFKIIMTVFTFGIKVPSGLFIPSMAIGAIAGRIVGIAVEQLAYYHHDWFIFKEWCEVGADCITPGLYAMVGAAACLGGVTRMTVSLVVIVFELTGGLEYTVPLMAAVMTSKWVGDAFGREGIYEAHIRLNGYPFLDAKEEFTHTTLAADVMRPRRSDPPLAVLTQDNMTVDDIENMINETSYNGFPVIMSKESQRLVGFALRRDLTIAIESARKKQEGIVGSSRVCFAQHTPSLPAESPRPLKLRSILDMSPFTVTDHTPMEIVVDIFRKLGLRQCLVTHNGIVLGIITKKDILRHMAQTANQDPASIMFN
binding result: binds
